The record followed here is publication PMC8376870, “Auto-inhibitory intramolecular S5/S6 interaction in the TRPV6 channel regulates breast cancer cell migration and invasion” (Communications Biology, 2021).

The target in the assay is T1, GST-G511-V540 (TRPV6 S5 fragment) (human, UniProt Q9H1D0 511-540).
T1 construct: also called S5 (G511-V540); source: E. coli, purified (GST beads)
Kind of assay: pull-down; purified His- or GST-tagged peptides from E. coli incubated together overnight at 4 °C, 50% beads (GST or Ni-NTA) added, washed with 1% NP-40, western blot. Particulars: both partners purified.

T1 sequence (Q9H1D0 511-540): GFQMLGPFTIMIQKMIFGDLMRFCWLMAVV

B1: His-MBP-A603-L632 (TRPV6 S6 fragment) (domain or fragment)
chain: not shown
notes: also called S6 (A603-L632); source: E. coli, purified (Ni-NTA beads)
For B1, the binding result is given as “binds”.
